{"source": "paper doi:10.1101/2022.11.09.515846", "about": "(bioRxiv, 2022)", "target": "T1, human Ndc80 loop segment (residues 370–509) with a cysteine added at each end (human, UniProt O14777 370-509)", "T1 chain": "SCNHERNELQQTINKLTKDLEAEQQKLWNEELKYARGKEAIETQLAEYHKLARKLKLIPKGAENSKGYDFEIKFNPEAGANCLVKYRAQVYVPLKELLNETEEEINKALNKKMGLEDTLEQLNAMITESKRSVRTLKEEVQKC", "assay": "crystal structure"}
{"binder": "human Nuf2 segment (residues 252–347) with a cysteine added at each end (domain or fragment) CKNYKEKMKDTVQKLKNARQEVVEKYEIYGDSVDCLPSCQLEVQLYQKKIQDLSDNREKLASILKESLNLEDQIESDESELKKLKTEENSFKRLMIVC", "values": [{"measurement": "binding result", "value": "binds"}]}
